The values that follow come from publication doi:10.1101/2025.03.04.641557 (bioRxiv, 2025).

B1: 3X-Flag tagged full length human MIDN^WT (midnolin, 468-aa isoform) (natural protein)
chain: MEPQPGGARSCRRGAPGGACELGPAAEAAPMSLAIHSTTGTRYDLAVPPDETVEGLRKRLSQRLKVPKERLALLHKDTRLSSGKLQEFGVGDGSKLTLVPTVEAGLMSQASRPEQSVMQALESLTETQVSDFLSGRSPLTLALRVGDHMMFVQLQLAAQHAPLQHRHVLAAAAAAAAARGDPSIASPVSSPCRPVSSAARVPPVPTSPSPASPSPITAGSFRSHAASTTCPEQMDCSPTASSSASPGASTTSTPGASPAPRSRKPGAVIESFVNHAPGVFSGTFSGTLHPNCQDSSGRPRRDIGTILQILNDLLSATRHYQGMPPSLAQLRCHAQCSPASPAPDLAPRTTSCEKLTAAPSASLLQGQSQIRMCKPPGDRLRQTENRATRCKVERLQLLLQQKRLRRKARRDARGPYHWSPSRKAGRSDSSSSGGGGSPSEASGLGLDFEDSVWKPEVNPDIKSEFVVA
B2: 3X-Flag tagged full length human MIDN L399K (purified) (natural protein)
chain: MEPQPGGARSCRRGAPGGACELGPAAEAAPMSLAIHSTTGTRYDLAVPPDETVEGLRKRLSQRLKVPKERLALLHKDTRLSSGKLQEFGVGDGSKLTLVPTVEAGLMSQASRPEQSVMQALESLTETQVSDFLSGRSPLTLALRVGDHMMFVQLQLAAQHAPLQHRHVLAAAAAAAAARGDPSIASPVSSPCRPVSSAARVPPVPTSPSPASPSPITAGSFRSHAASTTCPEQMDCSPTASSSASPGASTTSTPGASPAPRSRKPGAVIESFVNHAPGVFSGTFSGTLHPNCQDSSGRPRRDIGTILQILNDLLSATRHYQGMPPSLAQLRCHAQCSPASPAPDLAPRTTSCEKLTAAPSASLLQGQSQIRMCKPPGDRLRQTENRATRCKVERLQLLKQQKRLRRKARRDARGPYHWSPSRKAGRSDSSSSGGGGSPSEASGLGLDFEDSVWKPEVNPDIKSEFVVA
B3: 3X-Flag tagged full length human MIDN R403A (purified) (natural protein)
chain: MEPQPGGARSCRRGAPGGACELGPAAEAAPMSLAIHSTTGTRYDLAVPPDETVEGLRKRLSQRLKVPKERLALLHKDTRLSSGKLQEFGVGDGSKLTLVPTVEAGLMSQASRPEQSVMQALESLTETQVSDFLSGRSPLTLALRVGDHMMFVQLQLAAQHAPLQHRHVLAAAAAAAAARGDPSIASPVSSPCRPVSSAARVPPVPTSPSPASPSPITAGSFRSHAASTTCPEQMDCSPTASSSASPGASTTSTPGASPAPRSRKPGAVIESFVNHAPGVFSGTFSGTLHPNCQDSSGRPRRDIGTILQILNDLLSATRHYQGMPPSLAQLRCHAQCSPASPAPDLAPRTTSCEKLTAAPSASLLQGQSQIRMCKPPGDRLRQTENRATRCKVERLQLLLQQKALRRKARRDARGPYHWSPSRKAGRSDSSSSGGGGSPSEASGLGLDFEDSVWKPEVNPDIKSEFVVA
B4: 3X-Flag tagged full length human MIDN L395K (purified) (natural protein)
chain: MEPQPGGARSCRRGAPGGACELGPAAEAAPMSLAIHSTTGTRYDLAVPPDETVEGLRKRLSQRLKVPKERLALLHKDTRLSSGKLQEFGVGDGSKLTLVPTVEAGLMSQASRPEQSVMQALESLTETQVSDFLSGRSPLTLALRVGDHMMFVQLQLAAQHAPLQHRHVLAAAAAAAAARGDPSIASPVSSPCRPVSSAARVPPVPTSPSPASPSPITAGSFRSHAASTTCPEQMDCSPTASSSASPGASTTSTPGASPAPRSRKPGAVIESFVNHAPGVFSGTFSGTLHPNCQDSSGRPRRDIGTILQILNDLLSATRHYQGMPPSLAQLRCHAQCSPASPAPDLAPRTTSCEKLTAAPSASLLQGQSQIRMCKPPGDRLRQTENRATRCKVERKQLLLQQKRLRRKARRDARGPYHWSPSRKAGRSDSSSSGGGGSPSEASGLGLDFEDSVWKPEVNPDIKSEFVVA
B5: 3X-Flag tagged full length human MIDN R406A (purified) (natural protein)
chain: MEPQPGGARSCRRGAPGGACELGPAAEAAPMSLAIHSTTGTRYDLAVPPDETVEGLRKRLSQRLKVPKERLALLHKDTRLSSGKLQEFGVGDGSKLTLVPTVEAGLMSQASRPEQSVMQALESLTETQVSDFLSGRSPLTLALRVGDHMMFVQLQLAAQHAPLQHRHVLAAAAAAAAARGDPSIASPVSSPCRPVSSAARVPPVPTSPSPASPSPITAGSFRSHAASTTCPEQMDCSPTASSSASPGASTTSTPGASPAPRSRKPGAVIESFVNHAPGVFSGTFSGTLHPNCQDSSGRPRRDIGTILQILNDLLSATRHYQGMPPSLAQLRCHAQCSPASPAPDLAPRTTSCEKLTAAPSASLLQGQSQIRMCKPPGDRLRQTENRATRCKVERLQLLLQQKRLRAKARRDARGPYHWSPSRKAGRSDSSSSGGGGSPSEASGLGLDFEDSVWKPEVNPDIKSEFVVA
B6: 3X-Flag tagged full length human MIDN K391A (purified) (natural protein)
chain: MEPQPGGARSCRRGAPGGACELGPAAEAAPMSLAIHSTTGTRYDLAVPPDETVEGLRKRLSQRLKVPKERLALLHKDTRLSSGKLQEFGVGDGSKLTLVPTVEAGLMSQASRPEQSVMQALESLTETQVSDFLSGRSPLTLALRVGDHMMFVQLQLAAQHAPLQHRHVLAAAAAAAAARGDPSIASPVSSPCRPVSSAARVPPVPTSPSPASPSPITAGSFRSHAASTTCPEQMDCSPTASSSASPGASTTSTPGASPAPRSRKPGAVIESFVNHAPGVFSGTFSGTLHPNCQDSSGRPRRDIGTILQILNDLLSATRHYQGMPPSLAQLRCHAQCSPASPAPDLAPRTTSCEKLTAAPSASLLQGQSQIRMCKPPGDRLRQTENRATRCAVERLQLLLQQKRLRRKARRDARGPYHWSPSRKAGRSDSSSSGGGGSPSEASGLGLDFEDSVWKPEVNPDIKSEFVVA
B7: 3X-Flag tagged full length human MIDN N385A (purified) (natural protein)
chain: MEPQPGGARSCRRGAPGGACELGPAAEAAPMSLAIHSTTGTRYDLAVPPDETVEGLRKRLSQRLKVPKERLALLHKDTRLSSGKLQEFGVGDGSKLTLVPTVEAGLMSQASRPEQSVMQALESLTETQVSDFLSGRSPLTLALRVGDHMMFVQLQLAAQHAPLQHRHVLAAAAAAAAARGDPSIASPVSSPCRPVSSAARVPPVPTSPSPASPSPITAGSFRSHAASTTCPEQMDCSPTASSSASPGASTTSTPGASPAPRSRKPGAVIESFVNHAPGVFSGTFSGTLHPNCQDSSGRPRRDIGTILQILNDLLSATRHYQGMPPSLAQLRCHAQCSPASPAPDLAPRTTSCEKLTAAPSASLLQGQSQIRMCKPPGDRLRQTEARATRCKVERLQLLLQQKRLRRKARRDARGPYHWSPSRKAGRSDSSSSGGGGSPSEASGLGLDFEDSVWKPEVNPDIKSEFVVA

One experiment deals with HA-tagged MIDN^△α-Helix-C (human) (UniProt Q504T8). Description: co-IP.
Turning to “Flag-tagged RPN11 (from UniProt O00487 1-310) (enzyme)”, the reduction of binding relative to WT MIDN turned out to be 60%.

In a further experiment the target is human 26S proteasome (proteasome holoenzyme: 20S core particle with 19S regulatory particle) (human, UniProt P35998;P62191;P43686;P62333;P17980;P62195;Q13200;Q99460;O43242;O00232;O00231;Q15 …). Description: pull-down.
Take B1: the binding result is reported as “binds”.
Same read-out and setting: under B2 stands “binds”.
For B3, the binding result is listed as “binds”.
On the same count and under the same terms, to B4 belongs “binds”.
As to B5, the binding result was “binds”.
On the same count and under the same terms, to B6 belongs “binds”; to B7, “binds”.
